{"source": "patent US20230117831", "proteins": {"B1": {"name": "AMPK α1β1γ1-His tag (SignalChem P47-10H) (protein)", "chain 1": "MRRLSSWRKMATAEKQKHDGRVKIGHYILGDTLGVGTFGKVKVGKHELTGHKVAVKILNRQKIRSLDVVGKIRREIQNLKLFRHPHIIKLYQVISTPSDIFMVMEYVSGGELFDYICKNGRLDEKESRRLFQQILSGVDYCHRHMVVHRDLKPENVLLDAHMNAKIADFGLSNMMSDGEFLRTSCGSPNYAAPEVISGRLYAGPEVDIWSSGVILYALLCGTLPFDDDHVPTLFKKICDGIFYTPQYLNPSVISLLKHMLQVDPMKRATIKDIREHEWFKQDLPKYLFPEDPSYSSTMIDDEALKEVCEKFECSEEEVLSCLYNRNHQDPLAVAYHLIIDNRRIMNEAKDFYLATSPPDSFLDDHHLTRPHPERVPFLVAETPRARHTLDELNPQKSKHQGVRKAKWHLGIRSQSRPNDIMAEVCRAIKQLDYEWKVVNPYYLRVRRKNPVTSTYSKMSLQLYQVDSRTYLLDFRSIDDEITEAKSGTATPQRSGSVSNYRSCQRSDSDAEAQGKSSEVSLTSSVTSLDSSPVDLTPRPGSHTIEFFEMCANLIKILAQ", "chain 2": "MGNTSSERAALERHGGHKTPRRDSSGGTKDGDRPKILMDSPEDADLFHSEEIKAPEKEEFLAWQHDLEVNDKAPAQARPTVFRWTGGGKEVYLSGSFNNWSKLPLTRSHNNFVAILDLPEGEHQYKFFVDGQWTHDPSEPIVTSQLGTVNNIIQVKKTDFEVFDALMVDSQKCSDVSELSSSPPGPYHQEPYVCKPEERFRAPPILPPHLLQVILNKDTGISCDPALLPEPNHVMLNHLYALSIKDGVMVLSATHRYKKKYVTTLLYKPI", "chain 3": "METVISSDSSPAVENEHPQETPESNNSVYTSFMKSHRCYDLIPTSSKLVVFDTSLQVKKAFFALVTNGVRAAPLWDSKKQSFVGMLTITDFINILHRYYKSALVQIYELEEHKIETWREVYLQDSFKPLVCISPNASLFDAVSSLIRNKIHRLPVIDPESGNTLYILTHKRILKFLKLFITEFPKPEFMSKSLEELQIGTYANIAMVRTTTPVYVALGIFVQHRVSALPVVDEKGRVVDIYSKFDVINLAAEKTYNNLDVSVTKALQHRSHYFEGVLKCYLHETLETIINRLVEAEVHRLVVVDENDVVKGIVSLSDILQALVLTGGEKKP"}}, "key": {"BRD4 peptide S338": {"target": "T1, BRD4 peptide S338", "T1 chain": "KKDVPDSQQHPAPRR"}, "BRD4 peptide S325": {"target": "T2, BRD4 peptide S325", "T2 chain": "GQRRESSRPVKPPRR"}, "BRD4 peptide S358": {"target": "T3, BRD4 peptide S358", "T3 chain": "EQLKCCSGILKEMRR"}, "[1]": {"target": "BRD4-GST (BD1 and BD2 (49-460)) (BPS Bioscience 31044), O60885"}, "BRD4 peptide T169": {"target": "T4, BRD4 peptide T169", "T4 chain": "ELPTEETEIMIVQRR"}}, "data": [{"protein": "B1", "values": [{"measurement": "ADP-Glo assay, phosphorylation of the peptide by AMPK compared with the SAMS peptide", "setting": "BRD4 peptide S338", "result": "these peptides showed a 250-fold lower preference for phosphorylation than AMPK's natural ACC substrate-SAMS peptide"}, {"measurement": "ADP-Glo assay, phosphorylation of the peptide by AMPK compared with the SAMS peptide", "setting": "BRD4 peptide S325", "result": "these peptides showed a 250-fold lower preference for phosphorylation than AMPK's natural ACC substrate-SAMS peptide"}, {"measurement": "ADP-Glo assay, phosphorylation of the peptide by AMPK compared with the SAMS peptide", "setting": "BRD4 peptide S358", "result": "these peptides showed a 250-fold lower preference for phosphorylation than AMPK's natural ACC substrate-SAMS peptide"}, {"measurement": "BRD4 phosphorylation, western blot with phospho-AMPK substrate motif antibody", "setting": "[1]", "result": "Applicants observed BRD4 phosphorylation only when PHICS, BRD4, and kinase were present"}, {"measurement": "ADP-Glo assay, phosphorylation of the peptide by AMPK compared with the SAMS peptide", "setting": "BRD4 peptide T169", "result": "these peptides showed a 250-fold lower preference for phosphorylation than AMPK's natural ACC substrate-SAMS peptide"}]}]}
